The subject of series [1] is DnaA (Escherichia coli). The note with it: minimum DnaA concentration giving plateau in origin reconstitution assay; ATP, Mg; gel shift and filter binding mentioned without values. Background: A gel shift assay detects complexes by their altered migration in electrophoresis.
For series [2], the system named is DNA polymerase III core (alpha-epsilon-theta) (Yersinia pestis).
In series [3] the test system is DnaG primase (Yersinia pestis).
Series [4] relates to PolC (Streptococcus pyogenes). The note with it: reconstitution assay; template inferred.
Series [5] deals with DNA polymerase III alpha-epsilon (DnaE/DnaQ) (Pseudomonas aeruginosa) (UniProt Q9HXZ1+G3XD54). Particulars: E. coli DnaG-primed holoenzyme assay, 30 C.
The test system of series [6] is DnaG primase (Pseudomonas aeruginosa). Particulars: reconstituted P. aeruginosa holoenzyme assay, 22 C.
Series [7] addresses T1, N-terminally hexa-His-tagged P. aeruginosa χ (Pseudomonas aeruginosa, UniProt O68823 2-142).
T1 construct: also called immobilized tagged P. aeruginosa χ; N-terminally His-tagged HolC; not shown: N-terminal hexa-His tag encoded by vector pA1-NB-KpnI
T1 sequence: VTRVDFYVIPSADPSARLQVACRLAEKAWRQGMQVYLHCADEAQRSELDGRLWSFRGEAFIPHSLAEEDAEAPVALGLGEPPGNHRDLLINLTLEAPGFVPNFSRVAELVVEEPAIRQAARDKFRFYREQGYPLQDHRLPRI
The series can be described thus: Ni-NTA magnetic bead pull-down with immobilized His-tagged χ, imidazole elution.

In series [8] the target is T2, P. aeruginosa χ subunit (untagged) (Pseudomonas aeruginosa, UniProt O68823 2-142).
T2 construct: holC, PA3832, 142 amino acids; also called HolC; chi
T2 sequence: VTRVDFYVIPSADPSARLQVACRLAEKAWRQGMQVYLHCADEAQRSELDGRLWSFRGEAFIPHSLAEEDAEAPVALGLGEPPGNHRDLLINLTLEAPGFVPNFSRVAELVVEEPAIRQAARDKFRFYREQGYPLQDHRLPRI
Kind of series: co-expression and co-purification (ammonium sulfate, Q Sepharose).

“M13 ssDNA with 306-nt insert containing DnaA-box hairpin”: the activity in series [1] turned out to be 76 nM.

For M13Gori ssDNA, the activity came to 1.1e+07 U/mg in series [2]; 5.8e+06 U/mg in series [3]; 500000 U/mg in series [4]; 4.1e+06 U/mg in series [5]; 594000 U/mg in series [6].

B1: PA4679N45 protein, P. aeruginosa DNA polymerase III holoenzyme ψ subunit (other)
chain: LIEEQRRRAFLGAMQITSWLPRQPLPFAAPSRPELLETPPREEPAVPVRARAAIDAPQARVPQAEAPASAPSVAPAAPVEGRGIPISLPKPGAPAAKKAEPVAPVEEAPAESPAVQAPPPRFALQLLQAGSCTLLVELPTGEPFASRDPGYLLLRDLLRAAGLPDSPRLIGEPVRWPLLARGNLDQGPQAALEFVQSFVAARMEESERSRCLWLVGLPAIRFAGEGDEGSLFRELQVDGLGATWAVPGLEALMEEPALKGELWRAMRRVRQRWSSEIQ
notes: also called HolD; psi
For the molecule B1, the binding result in series [7] and in series [8] was “binds” throughout.

The values are drawn from US20100028862A1 (REPLIDYNE, published 2010).
